# Measured values taken from patent EP4011904A1 (Bayer Aktiengesellschaft, dated 2022).
# Positions of bridges follow the written chain, without caps; N, C: chain ends.
# T1: recombinant human MASP1 (amino acids 297-699, C-terminal His Tag) (human, UniProt P48740 297-699)
# T1 sequence: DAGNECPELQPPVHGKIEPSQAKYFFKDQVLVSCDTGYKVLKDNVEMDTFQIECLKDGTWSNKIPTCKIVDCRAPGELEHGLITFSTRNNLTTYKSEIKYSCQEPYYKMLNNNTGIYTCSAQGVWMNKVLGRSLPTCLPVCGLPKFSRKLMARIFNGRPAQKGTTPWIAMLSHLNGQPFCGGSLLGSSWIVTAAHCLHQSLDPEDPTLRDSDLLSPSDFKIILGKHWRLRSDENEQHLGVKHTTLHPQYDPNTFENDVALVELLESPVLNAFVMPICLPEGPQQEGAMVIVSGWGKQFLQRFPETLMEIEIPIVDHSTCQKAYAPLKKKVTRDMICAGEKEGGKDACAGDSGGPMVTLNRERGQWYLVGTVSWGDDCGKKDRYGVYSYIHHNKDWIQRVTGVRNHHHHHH
# T2: recombinant rat MASP1 (amino acids 302-704, C-terminal His Tag) (rat, UniProt Q8CHN8 302-704)
# T2 sequence: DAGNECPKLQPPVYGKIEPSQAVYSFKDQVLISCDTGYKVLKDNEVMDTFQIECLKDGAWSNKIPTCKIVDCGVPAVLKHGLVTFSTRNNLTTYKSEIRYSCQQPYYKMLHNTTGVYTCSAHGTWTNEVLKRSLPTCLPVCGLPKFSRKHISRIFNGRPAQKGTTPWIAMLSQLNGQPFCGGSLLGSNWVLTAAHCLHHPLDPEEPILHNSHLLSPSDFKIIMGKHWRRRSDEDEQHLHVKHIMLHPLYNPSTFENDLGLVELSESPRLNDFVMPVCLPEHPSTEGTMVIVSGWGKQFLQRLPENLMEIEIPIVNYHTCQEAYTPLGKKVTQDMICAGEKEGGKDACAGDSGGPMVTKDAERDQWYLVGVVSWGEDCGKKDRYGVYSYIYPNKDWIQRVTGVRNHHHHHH
# Key:
# Experiment in all cases: cell-based or functional assay
# [1] = target: T1, recombinant human MASP1 (amino acids …)
# [2] = target: recombinant human MASP2 (amino acids 297-686, C-terminal His Tag) (human, UniProt O00187 297-686)
# recombinant human MASP2 (amino acids 297-686, C-terminal His Tag), sequence (O00187 other isoform, or with tags, fused parts or gaps limits assumed, form in doubt): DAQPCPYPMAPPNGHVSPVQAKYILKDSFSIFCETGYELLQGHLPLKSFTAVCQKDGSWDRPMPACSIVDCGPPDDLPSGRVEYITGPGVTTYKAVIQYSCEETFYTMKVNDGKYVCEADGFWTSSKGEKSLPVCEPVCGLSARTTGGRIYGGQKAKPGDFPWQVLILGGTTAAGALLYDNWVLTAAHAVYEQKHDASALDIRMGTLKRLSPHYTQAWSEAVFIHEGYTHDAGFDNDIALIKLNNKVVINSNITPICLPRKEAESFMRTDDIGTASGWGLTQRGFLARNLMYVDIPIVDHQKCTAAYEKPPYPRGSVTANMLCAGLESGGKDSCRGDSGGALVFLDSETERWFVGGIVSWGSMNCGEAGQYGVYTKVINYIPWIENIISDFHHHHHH
# [3] = target: T2, recombinant rat MASP1 (amino acids …)
# [4] = target: recombinant rat MASP2 (amino acids 296-685, C-terminal His Tag) (rat, UniProt Q9JJS8 296-685)
# recombinant rat MASP2 (amino acids 296-685, C-terminal His Tag), sequence (Q9JJS8 other isoform, or with tags, fused parts or gaps limits assumed, form in doubt): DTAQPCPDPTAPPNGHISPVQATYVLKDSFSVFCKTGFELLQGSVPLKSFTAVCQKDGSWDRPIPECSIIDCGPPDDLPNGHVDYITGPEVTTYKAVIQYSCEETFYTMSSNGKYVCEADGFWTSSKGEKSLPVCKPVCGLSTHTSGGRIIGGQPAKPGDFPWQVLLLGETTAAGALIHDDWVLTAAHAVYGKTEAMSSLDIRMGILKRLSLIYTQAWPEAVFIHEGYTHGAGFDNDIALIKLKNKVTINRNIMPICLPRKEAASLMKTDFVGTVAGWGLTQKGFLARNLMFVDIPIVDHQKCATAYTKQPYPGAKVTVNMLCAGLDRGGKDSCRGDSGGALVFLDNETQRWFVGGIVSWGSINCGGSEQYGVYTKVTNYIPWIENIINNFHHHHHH
binder,measurement,setting,value
cyclo(GRCTKSIPPICFPD) (disulfide 3-11; also: TFA salt) [Bicyclic SFTI-1: G**RC+TKSIPPIC+FPD**],human MASP1 IC50,[1],> 3000 nM
same,human MASP2 IC50,[2],> 3000 nM
same,rat MASP1 IC50,[3],1000 nM
same,rat MASP2 IC50,[4],1000 nM
